Measured values from the supplement of paper PMC10567573.

B1: ZNF232 (parent)
chain: GKAYGWCSELIRHRRVHARKEPSH
B2: TRIM9 (parent)
chain: PRNSCITCPQCHRSLILDDRGLRG

Variants of: B1
Assay: protein stability index of a GFP-peptide fusion (GPS, HEK-293T) (PSI 1-6); higher = more stable
Settings: c terminus: a fixed tail appended
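Note: lentivirally expressed fusions sorted by FACS into six bins by GFP to DsRed ratio, PSI derived from sequencing read proportions per bin multiplied by bin number.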

Variant	protein stability index
LKAYGWCSELIRHRRVHARKEPSH [G1L]	2.85
NKAYGWCSELIRHRRVHARKEPSH [G1N]	3.14
IKAYGWCSELIRHRRVHARKEPSH [G1I]	2.72
HKAYGWCSELIRHRRVHARKEPSH [G1H]	2.75
WKAYGWCSELIRHRRVHARKEPSH [G1W]	1.97
EKAYGWCSELIRHRRVHARKEPSH [G1E]	3.39
QKAYGWCSELIRHRRVHARKEPSH [G1Q]	3.28
PKAYGWCSELIRHRRVHARKEPSH [G1P]	3.44
VKAYGWCSELIRHRRVHARKEPSH [G1V]	2.45
DKAYGWCSELIRHRRVHARKEPSH [G1D]	3.43
FKAYGWCSELIRHRRVHARKEPSH [G1F]	2.79
RKAYGWCSELIRHRRVHARKEPSH [G1R]	2.87
KKAYGWCSELIRHRRVHARKEPSH [G1K]	2.75
TKAYGWCSELIRHRRVHARKEPSH [G1T]	3.35
SKAYGWCSELIRHRRVHARKEPSH [G1S]	3.08
MKAYGWCSELIRHRRVHARKEPSH [G1M]	2.55
YKAYGWCSELIRHRRVHARKEPSH [G1Y]	2.37
CKAYGWCSELIRHRRVHARKEPSH [G1C]	2.73
AKAYGWCSELIRHRRVHARKEPSH [G1A]	2.89
GKHYGWCSELIRHRRVHARKEPSH [A3H]	2.69
GKNYGWCSELIRHRRVHARKEPSH [A3N]	3.12
GKTYGWCSELIRHRRVHARKEPSH [A3T]	3.02
GKQYGWCSELIRHRRVHARKEPSH [A3Q]	2.95

Variant	protein stability index
GKKYGWCSELIRHRRVHARKEPSH [A3K]	3.1
GKDYGWCSELIRHRRVHARKEPSH [A3D]	3.39
GKVYGWCSELIRHRRVHARKEPSH [A3V]	2.97
GKIYGWCSELIRHRRVHARKEPSH [A3I]	2.35
GKMYGWCSELIRHRRVHARKEPSH [A3M]	2.77
GKSYGWCSELIRHRRVHARKEPSH [A3S]	3.46
GKFYGWCSELIRHRRVHARKEPSH [A3F]	2.73
GKGYGWCSELIRHRRVHARKEPSH [A3G]	3
GKEYGWCSELIRHRRVHARKEPSH [A3E]	3.04
GKYYGWCSELIRHRRVHARKEPSH [A3Y]	2.53
GKPYGWCSELIRHRRVHARKEPSH [A3P]	2.81
GKRYGWCSELIRHRRVHARKEPSH [A3R]	2.92
GKLYGWCSELIRHRRVHARKEPSH [A3L]	2.29
GKCYGWCSELIRHRRVHARKEPSH [A3C]	2.89
GKWYGWCSELIRHRRVHARKEPSH [A3W]	2.48
GKAYGWCSQLIRHRRVHARKEPSH [E9Q]	2.64
GKAYGWCSLLIRHRRVHARKEPSH [E9L]	2.73
GKAYGWCSPLIRHRRVHARKEPSH [E9P]	3.24
GKAYGWCSSLIRHRRVHARKEPSH [E9S]	3.02
GKAYGWCSRLIRHRRVHARKEPSH [E9R]	2.83
GKAYGWCSFLIRHRRVHARKEPSH [E9F]	1.59
GKAYGWCSALIRHRRVHARKEPSH [E9A]	2.74
GKAYGWCSWLIRHRRVHARKEPSH [E9W]	1.81

Variant	protein stability index
GKAYGWCSNLIRHRRVHARKEPSH [E9N]	2.84
GKAYGWCSILIRHRRVHARKEPSH [E9I]	2.51
GKAYGWCSKLIRHRRVHARKEPSH [E9K]	2.96
GKAYGWCSYLIRHRRVHARKEPSH [E9Y]	2.18
GKAYGWCSCLIRHRRVHARKEPSH [E9C]	1.76
GKAYGWCSDLIRHRRVHARKEPSH [E9D]	3.12
GKAYGWCSHLIRHRRVHARKEPSH [E9H]	3.25
GKAYGWCSGLIRHRRVHARKEPSH [E9G]	3.03
GKAYGWCSVLIRHRRVHARKEPSH [E9V]	1.21
GKAYGWCSTLIRHRRVHARKEPSH [E9T]	3.53
GKAYGWCSMLIRHRRVHARKEPSH [E9M]	1.66
GKAYGWCSEHIRHRRVHARKEPSH [L10H]	3.64
GKAYGWCSEIIRHRRVHARKEPSH [L10I]	2.84
GKAYGWCSEDIRHRRVHARKEPSH [L10D]	3.5
GKAYGWCSECIRHRRVHARKEPSH [L10C]	2.15
GKAYGWCSEGIRHRRVHARKEPSH [L10G]	3.55
GKAYGWCSEKIRHRRVHARKEPSH [L10K]	3.08
GKAYGWCSEEIRHRRVHARKEPSH [L10E]	2.84
GKAYGWCSEMIRHRRVHARKEPSH [L10M]	3.43
GKAYGWCSEFIRHRRVHARKEPSH [L10F]	2.6
GKAYGWCSEAIRHRRVHARKEPSH [L10A]	3.08
GKAGGWCSELIRHRRVHARKEPSH [Y4G]	3.77
GKATGWCSELIRHRRVHARKEPSH [Y4T]	3.19

Variant	protein stability index
GKAMGWCSELIRHRRVHARKEPSH [Y4M]	3.07
GKAIGWCSELIRHRRVHARKEPSH [Y4I]	3.06
GKASGWCSELIRHRRVHARKEPSH [Y4S]	4.18
GKAFGWCSELIRHRRVHARKEPSH [Y4F]	2.84
GKAHGWCSELIRHRRVHARKEPSH [Y4H]	3.63
GKACGWCSELIRHRRVHARKEPSH [Y4C]	2.2
GKADGWCSELIRHRRVHARKEPSH [Y4D]	4.04
GKAPGWCSELIRHRRVHARKEPSH [Y4P]	4.12
GKAAGWCSELIRHRRVHARKEPSH [Y4A]	3.54
GKAEGWCSELIRHRRVHARKEPSH [Y4E]	3.62
GKALGWCSELIRHRRVHARKEPSH [Y4L]	2.76
GKANGWCSELIRHRRVHARKEPSH [Y4N]	3.83
GKAKGWCSELIRHRRVHARKEPSH [Y4K]	3.62
GKARGWCSELIRHRRVHARKEPSH [Y4R]	3.6
GKAVGWCSELIRHRRVHARKEPSH [Y4V]	3.04
GKAQGWCSELIRHRRVHARKEPSH [Y4Q]	3.75
GKAWGWCSELIRHRRVHARKEPSH [Y4W]	2.62
GKAYGWCKELIRHRRVHARKEPSH [S8K]	2.6
GKAYGWCYELIRHRRVHARKEPSH [S8Y]	2.34
GKAYGWCFELIRHRRVHARKEPSH [S8F]	1.97
GKAYGWCCELIRHRRVHARKEPSH [S8C]	2.14
GKAYGWCIELIRHRRVHARKEPSH [S8I]	1.57
GKAYGWCPELIRHRRVHARKEPSH [S8P]	3.21

Variant	protein stability index
GKAYGWCHELIRHRRVHARKEPSH [S8H]	2.69
GKAYGWCLELIRHRRVHARKEPSH [S8L]	2.45
GKAYGWCDELIRHRRVHARKEPSH [S8D]	3.22
GKAYGWCEELIRHRRVHARKEPSH [S8E]	3.2
GKAYGWCTELIRHRRVHARKEPSH [S8T]	3.25
GKAYGWCMELIRHRRVHARKEPSH [S8M]	1.94
GKAYGWCRELIRHRRVHARKEPSH [S8R]	2.99
GKAYGWCNELIRHRRVHARKEPSH [S8N]	3.21
GKAYGWCGELIRHRRVHARKEPSH [S8G]	2.5
GKAYGWCWELIRHRRVHARKEPSH [S8W]	1.97
GKAYGWCAELIRHRRVHARKEPSH [S8A]	2.67
GKAYGWCQELIRHRRVHARKEPSH [S8Q]	3.36
GKAYGWCVELIRHRRVHARKEPSH [S8V]	2.02
GRAYGWCSELIRHRRVHARKEPSH [K2R]	2.79
GDAYGWCSELIRHRRVHARKEPSH [K2D]	3.2
GLAYGWCSELIRHRRVHARKEPSH [K2L]	2.61
GCAYGWCSELIRHRRVHARKEPSH [K2C]	2.41
GWAYGWCSELIRHRRVHARKEPSH [K2W]	1.85
GEAYGWCSELIRHRRVHARKEPSH [K2E]	2.82
GVAYGWCSELIRHRRVHARKEPSH [K2V]	2.79
GMAYGWCSELIRHRRVHARKEPSH [K2M]	2.55
GAAYGWCSELIRHRRVHARKEPSH [K2A]	3.3
GIAYGWCSELIRHRRVHARKEPSH [K2I]	2.72

Variant	protein stability index
GFAYGWCSELIRHRRVHARKEPSH [K2F]	2.62
GGAYGWCSELIRHRRVHARKEPSH [K2G]	3.54
GQAYGWCSELIRHRRVHARKEPSH [K2Q]	3.26
GSAYGWCSELIRHRRVHARKEPSH [K2S]	2.84
GYAYGWCSELIRHRRVHARKEPSH [K2Y]	3.5
GHAYGWCSELIRHRRVHARKEPSH [K2H]	3.01
GPAYGWCSELIRHRRVHARKEPSH [K2P]	3.44
GNAYGWCSELIRHRRVHARKEPSH [K2N]	2.62
GTAYGWCSELIRHRRVHARKEPSH [K2T]	3.12
GKAYCWCSELIRHRRVHARKEPSH [G5C]	1.59
GKAYVWCSELIRHRRVHARKEPSH [G5V]	2.22
GKAYQWCSELIRHRRVHARKEPSH [G5Q]	3.09
GKAYSWCSELIRHRRVHARKEPSH [G5S]	2.99
GKAYEWCSELIRHRRVHARKEPSH [G5E]	2.89
GKAYHWCSELIRHRRVHARKEPSH [G5H]	3.04
GKAYLWCSELIRHRRVHARKEPSH [G5L]	1.72
GKAYMWCSELIRHRRVHARKEPSH [G5M]	2.94
GKAYTWCSELIRHRRVHARKEPSH [G5T]	2.79
GKAYRWCSELIRHRRVHARKEPSH [G5R]	2.9
GKAYIWCSELIRHRRVHARKEPSH [G5I]	2.29
GKAYNWCSELIRHRRVHARKEPSH [G5N]	3.56
GKAYYWCSELIRHRRVHARKEPSH [G5Y]	2.13
GKAYPWCSELIRHRRVHARKEPSH [G5P]	3.25

Variant	protein stability index
GKAYAWCSELIRHRRVHARKEPSH [G5A]	3.55
GKAYWWCSELIRHRRVHARKEPSH [G5W]	2.14
GKAYKWCSELIRHRRVHARKEPSH [G5K]	2.95
GKAYDWCSELIRHRRVHARKEPSH [G5D]	2.92
GKAYFWCSELIRHRRVHARKEPSH [G5F]	2.5
GKAYGQCSELIRHRRVHARKEPSH [W6Q]	3.81
GKAYGMCSELIRHRRVHARKEPSH [W6M]	3.82
GKAYGYCSELIRHRRVHARKEPSH [W6Y]	2.95
GKAYGLCSELIRHRRVHARKEPSH [W6L]	2.95
GKAYGACSELIRHRRVHARKEPSH [W6A]	3.49
GKAYGVCSELIRHRRVHARKEPSH [W6V]	3.59
GKAYGTCSELIRHRRVHARKEPSH [W6T]	3.69
GKAYGCCSELIRHRRVHARKEPSH [W6C]	2.6
GKAYGICSELIRHRRVHARKEPSH [W6I]	3.27
GKAYGDCSELIRHRRVHARKEPSH [W6D]	4.05
GKAYGGCSELIRHRRVHARKEPSH [W6G]	3.96
GKAYGSCSELIRHRRVHARKEPSH [W6S]	3.65
GKAYGNCSELIRHRRVHARKEPSH [W6N]	3.98
GKAYGPCSELIRHRRVHARKEPSH [W6P]	4.61
GKAYGRCSELIRHRRVHARKEPSH [W6R]	3.7
GKAYGFCSELIRHRRVHARKEPSH [W6F]	3.65
GKAYGKCSELIRHRRVHARKEPSH [W6K]	4.02
GKAYGHCSELIRHRRVHARKEPSH [W6H]	3.67

Variant	protein stability index
GKAYGECSELIRHRRVHARKEPSH [W6E]	3.35
GKAYGWFSELIRHRRVHARKEPSH [C7F]	2.42
GKAYGWDSELIRHRRVHARKEPSH [C7D]	3.42
GKAYGWMSELIRHRRVHARKEPSH [C7M]	2.62
GKAYGWHSELIRHRRVHARKEPSH [C7H]	3.37
GKAYGWKSELIRHRRVHARKEPSH [C7K]	3.54
GKAYGWESELIRHRRVHARKEPSH [C7E]	3.67
GKAYGWSSELIRHRRVHARKEPSH [C7S]	3.82
GKAYGWASELIRHRRVHARKEPSH [C7A]	3.3
GKAYGWTSELIRHRRVHARKEPSH [C7T]	3.26
GKAYGWISELIRHRRVHARKEPSH [C7I]	2.17
GKAYGWNSELIRHRRVHARKEPSH [C7N]	4.19
GKAYGWYSELIRHRRVHARKEPSH [C7Y]	2.57
GKAYGWPSELIRHRRVHARKEPSH [C7P]	3.61
GKAYGWQSELIRHRRVHARKEPSH [C7Q]	3.18
GKAYGWGSELIRHRRVHARKEPSH [C7G]	3.89
GKAYGWRSELIRHRRVHARKEPSH [C7R]	3.59
GKAYGWVSELIRHRRVHARKEPSH [C7V]	2.06
GKAYGWLSELIRHRRVHARKEPSH [C7L]	2.34
GKAYGWWSELIRHRRVHARKEPSH [C7W]	3.05

Variants of: B2
Assay: as above
Settings: c terminus: a fixed tail appended

Variant	protein stability index
PRNSCITCPQCHRSLILDDRGLRS [G24S]	2.35
PRNSCITCPQCHRSLILDDRGLRY [G24Y]	1.84
PRNSCITCPQCHRSLILDDRGLRT [G24T]	2.23
PRNSCITCPQCHRSLILDDRGLRQ [G24Q]	2.28
PRNSCITCPQCHRSLILDDRGLRR [G24R]	1.22
PRNSCITCPQCHRSLILDDRGLRW [G24W]	1.76
PRNSCITCPQCHRSLILDDRGLRV [G24V]	2.32
